Results as given in paper PMC4014126 (2014).

Target: NF-κB activator 1 (Act1) (UniProt Q8N7N6)
Assay: co-immunoprecipitation (anti-Myc IP, Western blot, ImageJ densitometry)
Conditions: IL-17RA-deficient MEFs reconstituted by retroviral infection; treated with IL-17 for 10 min; parent: 100

Chain of Myc-tagged mouse IL-17RA (Q60943 32-864, stated change not applied): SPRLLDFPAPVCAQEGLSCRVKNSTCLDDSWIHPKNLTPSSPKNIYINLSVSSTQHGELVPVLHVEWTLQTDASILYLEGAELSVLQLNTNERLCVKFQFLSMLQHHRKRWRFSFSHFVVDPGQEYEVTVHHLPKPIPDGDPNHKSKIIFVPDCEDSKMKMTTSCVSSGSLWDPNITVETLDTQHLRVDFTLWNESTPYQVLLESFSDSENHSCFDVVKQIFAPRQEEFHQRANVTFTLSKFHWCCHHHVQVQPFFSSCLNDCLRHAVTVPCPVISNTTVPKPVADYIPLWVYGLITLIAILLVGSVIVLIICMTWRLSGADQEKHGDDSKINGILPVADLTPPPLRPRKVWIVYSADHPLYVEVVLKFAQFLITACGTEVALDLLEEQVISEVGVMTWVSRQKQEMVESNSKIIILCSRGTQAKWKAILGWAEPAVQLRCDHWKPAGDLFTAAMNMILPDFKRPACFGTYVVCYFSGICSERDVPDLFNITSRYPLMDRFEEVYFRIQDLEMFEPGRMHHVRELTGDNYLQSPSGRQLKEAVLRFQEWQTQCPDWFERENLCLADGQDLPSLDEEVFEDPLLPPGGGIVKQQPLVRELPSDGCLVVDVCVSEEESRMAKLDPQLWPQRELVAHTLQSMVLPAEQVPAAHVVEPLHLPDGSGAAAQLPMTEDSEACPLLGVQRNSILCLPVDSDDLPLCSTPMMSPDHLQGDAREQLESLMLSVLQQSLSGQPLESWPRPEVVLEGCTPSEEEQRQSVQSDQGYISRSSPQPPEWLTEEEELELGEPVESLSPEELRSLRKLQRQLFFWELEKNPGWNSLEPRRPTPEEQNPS
Chain of NF-κB activator 1 (Act1) (Q8N7N6 whole entry): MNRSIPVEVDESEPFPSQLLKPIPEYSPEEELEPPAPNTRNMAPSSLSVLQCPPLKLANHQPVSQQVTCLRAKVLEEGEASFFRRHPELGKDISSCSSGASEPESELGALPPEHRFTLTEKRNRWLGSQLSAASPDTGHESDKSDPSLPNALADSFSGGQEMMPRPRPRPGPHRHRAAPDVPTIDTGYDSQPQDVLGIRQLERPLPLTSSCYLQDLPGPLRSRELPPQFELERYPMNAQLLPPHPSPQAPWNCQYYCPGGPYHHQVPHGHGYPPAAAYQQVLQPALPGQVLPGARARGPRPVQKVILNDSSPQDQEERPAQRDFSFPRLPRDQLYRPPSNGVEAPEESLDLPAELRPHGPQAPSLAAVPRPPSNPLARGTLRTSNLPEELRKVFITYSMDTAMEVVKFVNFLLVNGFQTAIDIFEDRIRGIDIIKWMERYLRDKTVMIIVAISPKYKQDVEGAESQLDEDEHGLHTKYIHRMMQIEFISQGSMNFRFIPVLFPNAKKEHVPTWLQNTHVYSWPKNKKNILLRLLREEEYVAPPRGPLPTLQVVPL

percent of parent: 31
Substance: Myc-tagged mouse IL-17RA (from UniProt Q60943) T483A; N488A; M489A
